Test results taken from patent US20220356210A1, “A SERIES OF INJECTABLE HYDROGELS SELF-ASSEMBLED FROM SHORT PEPTIDES FOR VARIOUS BIOMEDICAL APPLICATIONS” (Agency for Science, Technology and Research, priority 2019, published 2022).
Non-standard residues stand in square brackets, D forms with d. No end group written: not given here.

Tests used:
[1] = Gelation by vial tilting method; format: physicochemical; settings: for Concentration to form the gel: in the presence of a salt; for Minimum concentration to form the gel: without the presence of a salt
Procedure: The peptide powder was dissolved in water or other aqueous solutions at the required concentrations. Alternatively, the required salt may be added after the peptide aqueous solution is prepared. The hydrogel was formed by mixing the peptide aqueous solution and salt (if required). For example, the solution was vortexed and then incubated to form hydrogel. The hydrogel formed may be stored as formed, or may be dried, for example by freeze drying. Alternatively, the hydrogel may be formed as required. The gelation time was determined by the vial tilting method. […] Rheology experiments were performed at room temperature using a control-strain rheometer (ARES G2, TA instruments). The rheometer is equipped with two sensitive force transducers for torque ranging from 0.05 μN·m to 200 mN·m. The peptide powder was dissolved in water at concentrations ranging from 1.0 to 2.0 (w/v) %. The solution was vortexed and then incubated to form hydrogel. The gel was placed onto parallel-plate geometry (8 mm in diameter). The dynamic storage modulus (G′) and loss modulus (G″) were examined as a function of frequency from 1 to 100 rad/s. The measurements were carried out at a strain amplitude (y) to ensure the linearity of viscoelasticity. Flow sweep (viscosity changes as a function of shear rate) was also performed to study shear thinning properties of hydrogels.

[2] = Rheology, G′ and G″ at frequency of 1 Hz; format: physicochemical
Procedure: The gelation time was determined by the vial tilting method. […] Rheology experiments were performed at room temperature using a control-strain rheometer (ARES G2, TA instruments). The rheometer is equipped with two sensitive force transducers for torque ranging from 0.05 μN·m to 200 mN·m. […] The solution was vortexed and then incubated to form hydrogel. The gel was placed onto parallel-plate geometry (8 mm in diameter). The dynamic storage modulus (G′) and loss modulus (G″) were examined as a function of frequency from 1 to 100 rad/s. The measurements were carried out at a strain amplitude (y) to ensure the linearity of viscoelasticity. Flow sweep (viscosity changes as a function of shear rate) was also performed to study shear thinning properties of hydrogels.

[3] = CD spectra of peptide amphiphiles; format: physicochemical; settings: 1.0 mg/mL, with addition of salt (PBS pH 7.4), room temperature
Procedure: CD measurements were performed with a Jasco Model J-810 spectropolarimeter (Jasco, Great Dunmow, Essex, UK) using a quartz cuvette with 1 mm pathlength (Hellma, Germany). Spectra were recorded (average of 3 scans) from 240 to 190 nm at a scan speed of 50 nm/min. The ellipticity was derived from the formula: [θ]λ=(M/(N−1)×θλ)/(d×c), where θλ represents observed ellipticity (degrees) at wavelength λ, d represents pathlength (cm), c represents the concentration (g/mL), and [θ]λ represents residue ellipticity (deg cm^2 dmol^−1). Thermal scans were measured with Jasco Model J-810 spectropolarimeter equipped with a peltier temperature controller. The solution was allowed to reach equilibrium for 10 min at room temperature prior to testing.

[4] = Stability of peptide hydrogels in PBS
hMSCs = assay: Live/Dead staining of hMSCs on or in peptide hydrogel (confocal); format: cell-based, human
Procedure: hMSCs were cultured in MSCGM medium (Lonza, U.S.A.) and incubated at 37° C., 5% CO2. The medium was changed every three days. The cells were harvested with PBS containing 0.025 (w/v) % trypsin and 0.01% EDTA, centrifuged and sub-cultured to passage 4 in MSCGM for 2D culture on the surface of hydrogels or 3D hydrogel encapsulation as described below.
The morphology and viability of hMSCs on the surface of hydrogels and inside 3D peptide hydrogel environment was observed by an inverted confocal laser scanning microscope (CLSM) (CLSM, Carl Zeiss, Germany). Live/Dead cell staining assay (Invitrogen) was used. Briefly, cells cultured on the surfaces of hydrogels in chambered cover glass (NUNC, Denmark) were washed with PBS and incubated in 0.5 mL of PBS containing dyes for 10 min, then visualized by CLSM at excitation wavelengths of 488 nm and 532 nm. All the observations were conducted under the same conditions. For the cells grown in 3D hydrogels, the constructs were cut, followed by the addition of staining agent. The gels were transferred to cover glass and then visualized by CLSM using the same method as described for the cells on the hydrogel surface.

[5] = antimicrobial peptide alone; cited from earlier work
MRSA = settings: clinically isolated MRSA; cited from earlier work
A. baumannii = settings: clinically isolated multidrug-resistant A. baumannii; cited from earlier work
VRE = settings: clinically isolated VRE; cited from earlier work
P. aeruginosa = settings: clinically isolated multidrug-resistant P. aeruginosa; cited from earlier work
C. neoformans = settings: clinically isolated yeast C. neoformans; cited from earlier work
rat red blood cells = settings: cited from earlier work
[6] = In vitro cytotoxicity, MTT assay; format: cell-based, human; settings: human
Procedure: 1000 μL of HDFs or keratinocytes (10^5 cells per mL) were seeded onto the 12-well Transwell plates (Corning). IIK12 (1%) with various contents of antimicrobial peptides were dissolved in water and incubated at 37° C. overnight and 100 μL of gels were then transferred to the inserts of the Transwell plate. 1 mL of fresh medium was added into the inserts. The plates were incubated for 24 h before proceeding to MTT assay. It is noted that cells without any treatment and Mupirocin (GSK) were used as controls. The data were expressed as mean and standard deviation of three replicates and the tests were repeated 3 times.

[7] = keratitis mouse model; cited from earlier work
[8] = 1.5 wt %, gelation temp. 37 °C, DMEM
[9] = 1.5 wt %, gelation temp. 37 °C, H2O
[10] = 1.5 wt %, gelation temp. R.T., H2O
[11] = 2.0 wt %, gelation temp. 37 °C, H2O

IEIEIRIK (IEIEIRIK-NH2) [IIK8]
Concentration to form the gel [1]: 0.6 % w/v
Gel appearance, gelation in DI water at R.T. ([1]; peptide conc. 1.0 %): clear
Gelation in DI water at 37° C. (via tilting) ([1]; peptide conc. 1.0 %): overnight
Gelation in DI water at R.T. (via tilting), time ([1]; peptide conc. 1.0 %): 1 day, days
Gelation in DI water at 37° C. (via tilting), time ([1]; peptide conc. 1.5 %): ≤ 15 min
Gelation in DI water at R.T. (via tilting), time ([1]; peptide conc. 1.5 %): 30 min
Gelation in DI water at 37° C. (via tilting), time ([1]; peptide conc. 1.5 %, listed as IEIEIRIK): 20 min
Gelation in DI water at 37° C. (via tilting), time ([1]; peptide conc. 2.0 %): 20 min
Gelation in DI water at R.T. (via tilting), time ([1]; peptide conc. 2.0 %): 30 min
Minimum concentration to form the gel [1]: 1.0 % w/v
G′ (storage modulus) [2, 8]: 1206 Pa
G″ (loss modulus) [2, 8]: 172 Pa
G′ (storage modulus) [2, 9]: 707 Pa
G″ (loss modulus) [2, 9]: 32 Pa
G′ (storage modulus) [2, 10]: 125 Pa
G″ (loss modulus) [2, 10]: 22 Pa
G′ (storage modulus) [2, 11]: 1139 Pa
G″ (loss modulus) [2, 11]: 90 Pa
Molecular ellipticity (θM) at the minimum point [3]: −28.9 deg.cm^2dmol^−1
Stability in PBS ([4]; peptide conc. 1.0 %): Yes
Stability in PBS ([4]; peptide conc. 1.5 %): Yes
Stability in PBS ([4]; peptide conc. 2.0 %): Yes

IELEIRLK (IELEIRLK-NH2) [ILK8]
Concentration to form the gel [1]: 0.6 % w/v
Gelation in DI water at 37° C. (via tilting) ([1]; peptide conc. 1.0 %): overnight
Gelation in DI water at R.T. (via tilting), time ([1]; peptide conc. 1.0 %): 1 day days
Gelation in DI water at 37° C. (via tilting), time ([1]; peptide conc. 1.5 %): 15 min
Gelation in DI water at R.T. (via tilting), time ([1]; peptide conc. 1.5 %): 30 min
Gelation in DI water at 37° C. (via tilting), time ([1]; peptide conc. 2.0 %): 10 min
Gelation in DI water at R.T. (via tilting), time ([1]; peptide conc. 2.0 %): 20 min
Minimum concentration to form the gel [1]: 1.0 % w/v
G′ (storage modulus) [2, 10]: 332 Pa
G″ (loss modulus) [2, 10]: 40 Pa
Molecular ellipticity (θM) at the minimum point [3]: −21.4 deg.cm^2dmol^−1
Stability in PBS ([4]; peptide conc. 1.0 %): Yes
Stability in PBS ([4]; peptide conc. 1.5 %): Yes
Stability in PBS ([4]; peptide conc. 2.0 %): Yes

IEVEIEVKIRVK (IEVEIEVKIRVK-NH2) [IEV12]
Gelation in DI water at R.T. (via tilting) ([1]; peptide conc. 0.5 %): No
Gelation in DI water at 37° C. (via tilting) ([1]; peptide conc. 1.0, 2.0 %): Gel

IEVEIRVK-NH2 [IVK8, IEVEIRVK]
Viability of encapsulated cells (hMSCs; 1 day after encapsulation): the majority of encapsulated hMSCs remained viable
Viability of cells on the surface of peptide hydrogel (hMSCs; after 24 h attachment): the majority of the cells remained viable

IK8D: D-enantiomer of antimicrobial peptide IRIKIRIK ([dI][dR][dI][dK][dI][dR][dI][dK])
Peptide concentration at which a hydrogel forms [5]: 8 w/v %
MIC (MRSA): 3.9 mg/L
MIC (A. baumannii): 31.3 mg/L
MIC (VRE): 3.9 mg/L
MIC (P. aeruginosa): 15.6 mg/L
MIC (C. neoformans): 7.8 mg/L
HC10 value (the lowest concentration that induced 10% or more hemolysis) (rat red blood cells): 1750 µg/mL

IRIKIRIK-NH2 [IK8L, IRIKIRIK]
viability at 24 h, 1000 µg/mL ([6]; human dermal fibroblasts (HDFs) in 12-well Transwell plates): 22%
viability at 24 h, 125 µg/mL ([6]; human primary keratinocytes in 12-well Transwell plates): > 70%
Toxicity to the eyes [7]: without causing significant toxicity to the eyes
HC10 value (the lowest concentration that induced 10% or more hemolysis) (rat red blood cells): 2000 µg/mL

IRVE (IRVE-NH2)
Gelation in DI water at R.T. (via tilting) ([1]; peptide conc. 10 %): No

IRVEIEVK (IRVEIEVK-NH2) [IRK8]
Gel formation ([1]; concentrations up to 2%): no gel formation
Gelation in DI water at R.T. (via tilting) ([1]; peptide conc. 1.0 %): No
Gelation in DI water at R.T. (via tilting) ([1]; peptide conc. 2.0 %): No

IRVEIK (IRVEIK-NH2)
Gelation in DI water at R.T. (via tilting) ([1]; peptide conc. 1.0 %): No
Gelation in DI water at R.T. (via tilting) ([1]; peptide conc. 2.0 %): No

IRVEIKVE (IRVEIKVE-NH2) [IRE8]
Gelation in DI water at R.T. (via tilting) ([1]; peptide conc. 1.0 %): No
Gel appearance, gelation in DI water at R.T. ([1]; peptide conc. 2.0 %): clear
Gelation in DI water at 37° C. (via tilting), time ([1]; peptide conc. 2.0 %): 1400 min
Gelation in DI water at R.T. (via tilting), time ([1]; peptide conc. 2.0 %): 4300 min
Gelation in DI water at R.T. (via tilting), time ([1]; peptide conc. 2.0 %, listed as IRVEIKVE): 3 days,

IRVEIRVEIRVE (IRVEIRVEIRVE-NH2) [IRV12]
Gelation in DI water at R.T. (via tilting) ([1]; peptide conc. 0.5 %): No
Gel appearance, gelation in DI water at 37° C. ([1]; peptide conc. 1.0, 2.0 %): cloudy
Gelation in DI water at 37° C. (via tilting) ([1]; peptide conc. 1.0, 2.0 %): Gel,

IRVKIEVEIRVK (IRVKIEVEIRVK-NH2) [IVK12]
Lowest concentration at which hydrogels self-assembled ([1]; aqueous solution): 0.6 (w/v) %
Gelation in DI water at 37° C. (via tilting) ([1]; peptide conc. 0.6, 1.0 %): Gel
